Results from patent US20150105327.

Legend:
[1] = test system: recombinant human histone H2A (wild type)
[2] = test system: recombinant histone H4
[3] = test system: recombinant histone H3
[4] = test system: histone H2A T120A mutant
[5] = test system: tailless histone H2A (N- and C-terminal tails deleted)
[6] = test system: recombinant histone H2B
[7] = test system: H2A with mutations of six other potential modification sites on the tail domains

recombinant His-VprBP wild type, sequence (chain, as listed by the source): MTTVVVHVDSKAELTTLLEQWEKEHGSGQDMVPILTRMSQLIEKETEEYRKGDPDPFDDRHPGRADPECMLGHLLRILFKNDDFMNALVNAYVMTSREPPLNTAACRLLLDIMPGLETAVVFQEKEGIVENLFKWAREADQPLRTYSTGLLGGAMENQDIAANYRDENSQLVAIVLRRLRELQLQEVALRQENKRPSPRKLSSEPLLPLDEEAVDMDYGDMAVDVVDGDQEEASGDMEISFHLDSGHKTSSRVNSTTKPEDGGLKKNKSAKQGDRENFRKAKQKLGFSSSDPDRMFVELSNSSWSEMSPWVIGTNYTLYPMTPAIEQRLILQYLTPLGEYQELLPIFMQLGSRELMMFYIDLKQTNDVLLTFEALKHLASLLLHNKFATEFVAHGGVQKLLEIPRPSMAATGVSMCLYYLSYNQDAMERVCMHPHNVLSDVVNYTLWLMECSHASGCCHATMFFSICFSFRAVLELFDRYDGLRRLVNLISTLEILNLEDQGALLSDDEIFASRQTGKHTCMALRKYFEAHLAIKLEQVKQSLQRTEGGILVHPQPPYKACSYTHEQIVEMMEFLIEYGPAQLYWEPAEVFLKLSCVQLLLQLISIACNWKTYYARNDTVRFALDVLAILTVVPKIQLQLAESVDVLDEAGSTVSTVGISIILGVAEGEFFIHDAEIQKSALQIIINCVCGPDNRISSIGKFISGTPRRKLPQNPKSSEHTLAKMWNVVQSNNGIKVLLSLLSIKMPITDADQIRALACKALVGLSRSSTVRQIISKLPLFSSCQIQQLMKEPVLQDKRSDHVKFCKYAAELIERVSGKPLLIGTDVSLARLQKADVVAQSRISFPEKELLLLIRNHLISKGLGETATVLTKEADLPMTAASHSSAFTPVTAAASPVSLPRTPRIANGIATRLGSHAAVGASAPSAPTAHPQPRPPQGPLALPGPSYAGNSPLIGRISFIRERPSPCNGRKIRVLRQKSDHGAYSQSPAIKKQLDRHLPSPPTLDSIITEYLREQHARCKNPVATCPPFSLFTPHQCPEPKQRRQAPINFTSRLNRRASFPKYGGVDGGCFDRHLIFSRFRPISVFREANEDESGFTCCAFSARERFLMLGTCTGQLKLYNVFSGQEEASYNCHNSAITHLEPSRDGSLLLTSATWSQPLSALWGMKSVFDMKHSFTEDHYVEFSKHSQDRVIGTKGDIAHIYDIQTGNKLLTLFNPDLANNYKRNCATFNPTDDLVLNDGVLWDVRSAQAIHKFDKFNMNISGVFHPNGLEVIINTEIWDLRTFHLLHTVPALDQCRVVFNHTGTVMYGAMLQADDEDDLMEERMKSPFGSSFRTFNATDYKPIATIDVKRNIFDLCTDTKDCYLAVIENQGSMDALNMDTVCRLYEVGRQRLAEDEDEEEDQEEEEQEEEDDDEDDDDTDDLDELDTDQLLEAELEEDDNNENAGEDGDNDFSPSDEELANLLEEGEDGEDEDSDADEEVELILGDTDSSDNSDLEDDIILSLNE
VprBP kinase-dead mutant K194R, sequence (chain, as listed by the source K194R): as the sequence (chain, as listed by the source) above, with K194R counted along it

Row | Substance | H2A phosphorylation in nucleosomes, in vitro kinase assay, autoradiography [1] | phosphorylation of free individual histones, in vitro kinase assay with [g-32P]-ATP, autoradiography [2] | phosphorylation of free individual histones, in vitro kinase assay with [g-32P]-ATP, autoradiography [3] | H2A phosphorylation in nucleosomes, in vitro kinase assay, autoradiography [4] | H2A phosphorylation in nucleosomes, in vitro kinase assay, autoradiography [5] | phosphorylation of free individual histones, in vitro kinase assay with [g-32P]-ATP, autoradiography [6] | H2A phosphorylation in nucleosomes, in vitro kinase assay, autoradiography [7] | phosphorylation of H2A in reconstituted nucleosomes, in vitro kinase assay, autoradiography [1] | phosphorylation of free individual histones, in vitro kinase assay with [g-32P]-ATP, autoradiography [1]
1 | VprBP kinase-dead mutant K194R | mutation of this lysine residue completely abrogated kinase activity |  |  |  |  |  |  |  | 
2 | recombinant His-VprBP wild type |  | a robust phosphorylation of H2A, but not other core histones | a robust phosphorylation of H2A, but not other core histones | VprBP-mediated phosphorylation is completely abolished by mutation of T120 | simultaneous deletion of the N- and C-terminal tails of H2A blocks H2A phosphorylation by VprBP | a robust phosphorylation of H2A, but not other core histones | mutations of six other potential modification sites on the tail domains had little effect | VprBP generated clear labeling of H2A in the nucleosome after autoradiography | Autoradiograph of the kinase reaction products showed a robust phosphorylation of H2A, but not other core histones
